IntAct's records for PubMed 19229292

Experiments:
dlg3_rat Dlg3 = dlg3_rat Dlg3 (UniProt Q62936)
dlg1_rat Dlg1 = dlg1_rat Dlg1 (UniProt Q62696)
dlg2_rat Dlg2 = dlg2_rat Dlg2 (UniProt Q63622)
Chain of dlg2_rat Dlg2 (Q63622 whole entry, looked up): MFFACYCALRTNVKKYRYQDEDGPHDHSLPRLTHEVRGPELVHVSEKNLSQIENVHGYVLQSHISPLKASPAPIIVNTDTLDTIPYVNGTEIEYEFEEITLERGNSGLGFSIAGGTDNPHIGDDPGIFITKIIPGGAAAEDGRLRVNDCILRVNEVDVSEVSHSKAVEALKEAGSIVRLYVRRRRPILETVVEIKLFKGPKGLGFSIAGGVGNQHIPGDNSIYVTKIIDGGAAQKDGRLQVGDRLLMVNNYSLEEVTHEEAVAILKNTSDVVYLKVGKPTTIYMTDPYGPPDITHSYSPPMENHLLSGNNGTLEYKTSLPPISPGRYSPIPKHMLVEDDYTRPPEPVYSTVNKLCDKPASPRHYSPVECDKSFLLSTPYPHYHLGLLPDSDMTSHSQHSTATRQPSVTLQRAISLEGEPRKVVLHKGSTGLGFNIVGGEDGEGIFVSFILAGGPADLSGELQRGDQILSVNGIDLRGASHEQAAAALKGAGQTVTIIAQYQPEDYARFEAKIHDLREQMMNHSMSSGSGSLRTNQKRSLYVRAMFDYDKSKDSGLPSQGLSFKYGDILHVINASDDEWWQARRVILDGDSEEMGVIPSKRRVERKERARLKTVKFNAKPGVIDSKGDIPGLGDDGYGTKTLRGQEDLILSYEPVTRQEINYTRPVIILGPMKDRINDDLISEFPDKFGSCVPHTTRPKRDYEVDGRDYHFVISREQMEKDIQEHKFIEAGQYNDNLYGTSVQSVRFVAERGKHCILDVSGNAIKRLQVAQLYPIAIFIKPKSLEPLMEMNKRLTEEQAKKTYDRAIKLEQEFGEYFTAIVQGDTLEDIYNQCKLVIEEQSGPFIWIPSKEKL

Chain of dlg1_rat Dlg1 (Q62696 whole entry): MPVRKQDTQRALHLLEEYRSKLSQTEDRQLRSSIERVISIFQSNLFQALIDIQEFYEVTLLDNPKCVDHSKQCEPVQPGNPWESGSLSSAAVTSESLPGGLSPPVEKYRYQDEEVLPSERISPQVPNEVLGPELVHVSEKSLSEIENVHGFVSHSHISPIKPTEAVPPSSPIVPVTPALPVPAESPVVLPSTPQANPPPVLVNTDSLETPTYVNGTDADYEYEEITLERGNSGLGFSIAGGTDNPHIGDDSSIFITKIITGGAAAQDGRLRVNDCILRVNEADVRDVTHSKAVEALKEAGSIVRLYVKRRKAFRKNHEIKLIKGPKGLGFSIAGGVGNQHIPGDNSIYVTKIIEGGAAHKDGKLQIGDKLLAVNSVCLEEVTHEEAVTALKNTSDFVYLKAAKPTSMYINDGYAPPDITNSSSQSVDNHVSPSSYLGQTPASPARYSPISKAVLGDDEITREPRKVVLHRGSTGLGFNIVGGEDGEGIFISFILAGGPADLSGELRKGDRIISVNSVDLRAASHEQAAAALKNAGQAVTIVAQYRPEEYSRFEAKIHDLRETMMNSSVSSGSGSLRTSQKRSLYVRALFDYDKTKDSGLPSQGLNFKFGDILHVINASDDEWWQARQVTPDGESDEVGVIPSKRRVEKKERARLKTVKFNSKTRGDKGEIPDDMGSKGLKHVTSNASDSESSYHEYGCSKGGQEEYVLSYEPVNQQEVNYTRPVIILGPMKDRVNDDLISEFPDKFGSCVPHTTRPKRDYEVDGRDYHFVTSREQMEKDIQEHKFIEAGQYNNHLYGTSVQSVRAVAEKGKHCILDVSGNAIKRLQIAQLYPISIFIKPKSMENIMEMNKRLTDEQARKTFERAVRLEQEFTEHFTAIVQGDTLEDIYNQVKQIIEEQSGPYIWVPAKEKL
Chain of dlg3_rat Dlg3 (Q62936 whole entry): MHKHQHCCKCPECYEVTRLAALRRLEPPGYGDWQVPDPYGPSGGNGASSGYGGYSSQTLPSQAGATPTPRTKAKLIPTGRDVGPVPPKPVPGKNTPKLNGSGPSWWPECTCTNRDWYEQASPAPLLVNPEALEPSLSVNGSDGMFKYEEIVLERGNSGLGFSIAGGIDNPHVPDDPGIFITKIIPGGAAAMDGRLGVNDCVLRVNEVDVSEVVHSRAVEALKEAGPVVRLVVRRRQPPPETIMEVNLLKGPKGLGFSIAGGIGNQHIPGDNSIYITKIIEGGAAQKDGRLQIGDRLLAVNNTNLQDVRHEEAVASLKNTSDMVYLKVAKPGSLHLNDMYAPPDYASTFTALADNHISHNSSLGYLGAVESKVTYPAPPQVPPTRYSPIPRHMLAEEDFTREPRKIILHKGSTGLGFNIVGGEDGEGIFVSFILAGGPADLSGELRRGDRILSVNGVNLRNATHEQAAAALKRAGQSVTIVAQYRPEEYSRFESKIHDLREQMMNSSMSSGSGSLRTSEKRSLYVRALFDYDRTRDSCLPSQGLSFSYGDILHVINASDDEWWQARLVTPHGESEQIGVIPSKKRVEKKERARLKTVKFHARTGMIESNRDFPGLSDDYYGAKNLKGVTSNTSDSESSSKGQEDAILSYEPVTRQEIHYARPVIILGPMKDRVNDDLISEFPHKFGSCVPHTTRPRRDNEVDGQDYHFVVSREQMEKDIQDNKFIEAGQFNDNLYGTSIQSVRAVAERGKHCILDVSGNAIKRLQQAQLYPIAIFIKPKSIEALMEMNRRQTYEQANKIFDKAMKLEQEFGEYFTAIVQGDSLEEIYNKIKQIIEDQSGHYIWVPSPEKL

effect of a mutation on the interaction (dlg3_rat Dlg3): disrupting interaction
effect of a mutation on the interaction (dlg1_rat Dlg1): disrupting interaction
effect of a mutation on the interaction (dlg2_rat Dlg2): disrupting interaction
Substance: Diacylglycerol kinase zeta (Rattus norvegicus (Rat)), O08560 V929A
